Here are results for 94 variants from the supplement of paper PMC10567573.

B1: NECAB1 (parent)
chain: FSPNSPQFNVSGPGLLEEDNQWMT
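Also: lentivirally expressed fusions sorted by FACS into six bins by GFP to DsRed ratio, PSI derived from sequencing read proportions per bin multiplied by bin number.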

The data set covers variants of B1. Briefly: protein stability index of a GFP-peptide fusion (GPS, HEK-293T) (PSI 1-6); higher = more stable. The following applies: c terminus: a fixed tail appended.
Take FSPNSPQFNVSGPILLEEDNQWMT: the protein stability index came to 2.29.

For the variant FSPNSPQFNVSGPRLLEEDNQWMT, the protein stability index stood at 2.63. As for FSPNSPQFNVSGPLLLEEDNQWMT, the figure is 2.62; as for FSPNSPQFNVSGPKLLEEDNQWMT, 2.3; as for FSPNSPQFNVSGPDLLEEDNQWMT, 3.73. For FSPNSPQFNVSGPELLEEDNQWMT, the protein stability index amounted to 3.58. In the case of FSPNSPQFNVSGPFLLEEDNQWMT, the protein stability index was 2.35. As for FSPNSPQFNVSGPHLLEEDNQWMT, the figure is 2.47. With FSPNSPQFNVSGPNLLEEDNQWMT, the protein stability index stood at 2.89. Take FSPNSPQFNVSGPSLLEEDNQWMT: the protein stability index was determined as 3.04. As for FSPNSPQFNVSGPWLLEEDNQWMT, the figure is 1.96. As for FSPNSPQFNVSGPPLLEEDNQWMT, the figure is 3.17. As for FSPNSPQFNVSGPCLLEEDNQWMT, the figure is 3.32; as for FSPNSPQFNVSGPMLLEEDNQWMT, 2.35; as for FSPNSPQFNVSGPQLLEEDNQWMT, 2.74. FSPNSPQFNVSGPALLEEDNQWMT: the protein stability index turned out to be 3.44. As to FSPNSPQFNVSGPYLLEEDNQWMT, the protein stability index is 2.22. As for FSPNSPQFNVSGPTLLEEDNQWMT, the figure is 2.52; as for FSPNSPQFNVSGPVLLEEDNQWMT, 2.89.

As for FSPNSPQFNVSGPGLLEEDLQWMT, the protein stability index is 2.27. As for FSPNSPQFNVSGPGLLEEDAQWMT, the figure is 3.29. As for FSPNSPQFNVSGPGLLEEDDQWMT, the figure is 3.86.

Consider FSPNSPQFNVSGPGLLEEDTQWMT, for which the protein stability index was determined as 3.19. FSPNSPQFNVSGPGLLEEDEQWMT: the protein stability index was found to be 3.73. As for FSPNSPQFNVSGPGLLEEDWQWMT, the figure is 2.46; as for FSPNSPQFNVSGPGLLEEDMQWMT, 2.54; as for FSPNSPQFNVSGPGLLEEDCQWMT, 2.63. For FSPNSPQFNVSGPGLLEEDFQWMT, the protein stability index was found to be 2.71. Regarding FSPNSPQFNVSGPGLLEEDPQWMT, the protein stability index was determined as 3.28.

For the variant FSPNSPQFNVSGPGLLEEDHQWMT, the protein stability index is 2.62.

Regarding FSPNSPQFNVSGPGLLEEDIQWMT, the protein stability index is 2.24.

FSPNSPQFNVSGPGLLEEDQQWMT: the protein stability index is 2.84. In the case of FSPNSPQFNVSGPGLLEEDVQWMT, the protein stability index came to 2.58. As for FSPNSPQFNVSGPGLLEEDRQWMT, the figure is 2.88; as for FSPNSPQFNVSGPGLLEEDSQWMT, 2.68; as for FSPNSPQFNVSGPGLLEEDYQWMT, 2.26.

Take FSPNSPQFNVSGPGLLEEDGQWMT: the protein stability index was 2.79. As for FSPNSPQFNVSGPGLLEEDKQWMT, the figure is 2.54; as for FSPNSPQFNVSWPGLLEEDNQWMT, 1.74; as for FSPNSPQFNVSNPGLLEEDNQWMT, 2.77. As for FSPNSPQFNVSDPGLLEEDNQWMT, the figure is 3.13; as for FSPNSPQFNVSIPGLLEEDNQWMT, 2.42. On to FSPNSPQFNVSMPGLLEEDNQWMT, for which the protein stability index is 3.18. Consider FSPNSPQFNVSEPGLLEEDNQWMT, for which the protein stability index turned out to be 3.12. As for FSPNSPQFNVSSPGLLEEDNQWMT, the figure is 3.13; as for FSPNSPQFNVSCPGLLEEDNQWMT, 2.04; as for FSPNSPQFNVSHPGLLEEDNQWMT, 2.62.

For FSPNSPQFNVSRPGLLEEDNQWMT, the protein stability index was 2.7. In the case of FSPNSPQFNVSYPGLLEEDNQWMT, the protein stability index worked out at 2.14. FSPNSPQFNVSLPGLLEEDNQWMT: the protein stability index turned out to be 2.47. Regarding FSPNSPQFNVSQPGLLEEDNQWMT, the protein stability index was found to be 3.04. As for FSPNSPQFNVSVPGLLEEDNQWMT, the figure is 2.86. As for FSPNSPQFNVSFPGLLEEDNQWMT, the figure is 2.21; as for FSPNSPQFNVSPPGLLEEDNQWMT, 2.86; as for FSPNSPQFNVSKPGLLEEDNQWMT, 2.85. As for FSPNSPQFNVSTPGLLEEDNQWMT, the figure is 3.22. FSPNSPQFNVSAPGLLEEDNQWMT: the protein stability index was 2.85. As for FSPNSPQFNVTGPGLLEEDNQWMT, the figure is 2.79; as for FSPNSPQFNVHGPGLLEEDNQWMT, 2.5. As to FSPNSPQFNVMGPGLLEEDNQWMT, the protein stability index was 2.16. Take FSPNSPQFNVPGPGLLEEDNQWMT: the protein stability index amounted to 3.19. As for FSPNSPQFNVGGPGLLEEDNQWMT, the figure is 2.76; as for FSPNSPQFNVRGPGLLEEDNQWMT, 2.62. As for FSPNSPQFNVWGPGLLEEDNQWMT, the figure is 3.29.

FSPNSPQFNVIGPGLLEEDNQWMT: the protein stability index stood at 2.9. As to FSPNSPQFNVLGPGLLEEDNQWMT, the protein stability index is 2.91. For the variant FSPNSPQFNVVGPGLLEEDNQWMT, the protein stability index was 2.51. Take FSPNSPQFNVKGPGLLEEDNQWMT: the protein stability index came to 2.44.

For the variant FSPNSPQFNVQGPGLLEEDNQWMT, the protein stability index came out at 3.09.

As for FSPNSPQFNVYGPGLLEEDNQWMT, the protein stability index is 1.95. FSPNSPQFNVNGPGLLEEDNQWMT: the protein stability index was found to be 3.31.

As to FSPNSPQFNVSGPGLLEEDNDWMT, the protein stability index stood at 1.97. In the case of FSPNSPQFNVSGPGLLEEDNCWMT, the protein stability index was found to be 2.14. As for FSPNSPQFNVSGPGLLEEDNAWMT, the figure is 2.45. As for FSPNSPQFNVSGPGLLEEENQWMT, the figure is 2.78. As for FSPNSPQFNVSGPGLLEEVNQWMT, the figure is 2.1; as for FSPNSPQFNVSGPGLLEESNQWMT, 2.33. Regarding FSPNSPQFNVSGPGLLEEPNQWMT, the protein stability index came out at 2.03.

FSPNSPQFNVSGPGLLEEANQWMT: the protein stability index stood at 2.11. Regarding FSPNSPQFNVSGPGLLEELNQWMT, the protein stability index turned out to be 2.3. Turning to FSPNSPQFNVSGPGLLEEGNQWMT, the protein stability index is 2.33.

Consider FSPNSPQFNVSGPGLLEETNQWMT, for which the protein stability index stood at 2.1.

Turning to FSPNSPQFNVSGPGLLEEHNQWMT, the protein stability index was 2.79.

For FSPNSPQFNVSGPGLLEEMNQWMT, the protein stability index was found to be 2.57. As for FSPNSPQFNVSGPGLLEENNQWMT, the figure is 2.57; as for FSPNSPQFNVSGPGLLEEKNQWMT, 2.18. Turning to FSPNSPQFNVSGPGLLEEYNQWMT, the protein stability index was 2.44. As to FSPNSPQFNVSGPGLLEEWNQWMT, the protein stability index stood at 2.02. As for FSPNSPQFNVSGPGLLEEFNQWMT, the figure is 2.12. Take FSPNSPQFNVSGPGLLEECNQWMT: the protein stability index came out at 2.72. With FSPNSPQFNVSGPGLLEEINQWMT, the protein stability index worked out at 2.55. Consider FSPNSPQFNVSGPGLLEERNQWMT, for which the protein stability index is 1.94.

With FSPNSPQFNVSGPGLLEEQNQWMT, the protein stability index was determined as 2.5.

As for FSPNSPQFNVSGDGLLEEDNQWMT, the protein stability index was determined as 3.46.
